Reference: article PMC3381998

How the values were obtained:
[1] = molecular target: SEPT7 (UniProt Q16181); assay: co-IP
[2] = molecular target: SEPT6 (UniProt Q14141); assay: co-IP
SEPT6, sequence (Q14141 whole entry): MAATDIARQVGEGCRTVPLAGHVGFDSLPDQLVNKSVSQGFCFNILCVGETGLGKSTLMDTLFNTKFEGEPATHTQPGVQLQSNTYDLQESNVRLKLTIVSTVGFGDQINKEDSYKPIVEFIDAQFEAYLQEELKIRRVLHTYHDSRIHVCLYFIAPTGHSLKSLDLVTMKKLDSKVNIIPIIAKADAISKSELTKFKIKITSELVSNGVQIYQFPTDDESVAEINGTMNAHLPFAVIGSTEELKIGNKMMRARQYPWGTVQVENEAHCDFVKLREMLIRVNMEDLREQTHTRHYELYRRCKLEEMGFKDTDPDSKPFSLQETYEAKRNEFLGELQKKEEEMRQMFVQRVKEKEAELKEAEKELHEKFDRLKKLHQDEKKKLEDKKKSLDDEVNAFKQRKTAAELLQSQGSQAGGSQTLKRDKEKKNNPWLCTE

SEPT7, sequence (Q16181 whole entry): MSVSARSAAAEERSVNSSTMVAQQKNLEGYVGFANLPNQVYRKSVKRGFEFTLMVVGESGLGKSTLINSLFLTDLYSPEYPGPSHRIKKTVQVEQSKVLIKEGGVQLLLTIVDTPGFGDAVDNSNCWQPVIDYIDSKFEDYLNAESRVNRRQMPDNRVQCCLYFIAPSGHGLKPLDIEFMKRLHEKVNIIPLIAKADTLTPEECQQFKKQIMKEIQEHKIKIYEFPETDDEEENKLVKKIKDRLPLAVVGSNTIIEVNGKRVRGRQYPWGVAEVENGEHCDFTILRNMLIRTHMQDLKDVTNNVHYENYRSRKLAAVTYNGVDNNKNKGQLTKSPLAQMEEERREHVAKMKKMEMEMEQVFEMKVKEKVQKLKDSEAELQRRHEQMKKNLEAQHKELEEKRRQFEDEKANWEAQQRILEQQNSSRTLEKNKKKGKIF

percent of total SEPT6 precipitated with SEPT7 [1]	percent of SEPT7 depleted on immunodepletion of SEPT6 [2]	percent of SEPT7 that interacts with SEPT6 [2]	Substance
24%	–	–	SEPT6 (from UniProt Q14141 1-434) (natural protein)
–	30%	43%	SEPT7 (from UniProt Q16181 1-437) (natural protein)
